Measured values from patent US20180155451A1 (published 2018).

B1: GpH7-A5/GpH7-B3 variant S239_08L/GpL16-k0 (antibody, human IgG1, kappa)
heavy 1: not shown
heavy 2: not shown
light: DIVMTQSPLSLPVTPGEPASISCQASESLVHSNRNTYLHWYLQKPGQSPQLLIYKVSNRFSGVPDRFSGSGSGTDFTLKISRVEAEDVGVYYCSQNTHVPPTFGQGTKVEIERTVAAPSVFIFPPSDEQLKSGTASVVCLLNNFYPREAKVQWKVDNALQSGNSQESVTEQDSKDSTYSLSSTLTLSKADYEKHKVYACEVTHQGLSSPVTKSFNRGEC
notes: Heterodimerized IgG1 (He Ab); mutation only in the GpH7-B3 chain; also called He Ab S239L
B2: GpH7-A5/GpH7-B3 variant S239_01G/GpL16-k0 (antibody, human IgG1, kappa)
heavy 1: not shown
heavy 2: not shown
light: B1 light
notes: Heterodimerized anti-glypican-3 IgG1; the substitution stands in the GpH7-B3 chain only; also called He Ab
B3: GpH7-A5/GpH7-B3 variant V266_12R/GpL16-k0 (antibody, human IgG1, kappa)
heavy 1: not shown
heavy 2: not shown
light: B1 light
notes: Heterodimerized IgG1 (He Ab); mutation only in the GpH7-B3 chain; also called He Ab V266R
B4: GpH7-A5/GpH7-B3 variant S239_10E/GpL16-k0 (antibody, human IgG1, kappa)
heavy 1: not shown
heavy 2: not shown
light: B1 light
notes: Heterodimerized IgG1 (He Ab); mutation only in the GpH7-B3 chain; also called He Ab S239E
B5: GpH7-A5/GpH7-B3 variant V266_04F/GpL16-k0 (antibody, human IgG1, kappa)
heavy 1: not shown
heavy 2: not shown
light: B1 light
notes: Heterodimerized IgG1 (He Ab); mutation only in the GpH7-B3 chain; also called He Ab V266F
B6: GpH7-A5/GpH7-B3 variant V266_10E/GpL16-k0 (antibody, human IgG1, kappa)
heavy 1: not shown
heavy 2: not shown
light: B1 light
notes: Heterodimerized IgG1 (He Ab); mutation only in the GpH7-B3 chain; also called He Ab V266E
B7: GpH7-A5/GpH7-B3 variant P238_18N/GpL16-k0 (antibody, human IgG1, kappa)
heavy 1: not shown
heavy 2: not shown
light: B1 light
notes: as for B2
B8: GpH7-A5/GpH7-B3 variant P238_20W/GpL16-k0 (antibody, human IgG1, kappa)
heavy 1: not shown
heavy 2: not shown
light: B1 light
notes: as for B2
B9: GpH7-A5/GpH7-B3 variant S239_20W/GpL16-k0 (antibody, human IgG1, kappa)
heavy 1: not shown
heavy 2: not shown
light: B1 light
notes: Heterodimerized IgG1 (He Ab); mutation only in the GpH7-B3 chain; also called He Ab S239W
B10: GpH7-A5/GpH7-B3 variant D265_01G/GpL16-k0 (antibody, human IgG1, kappa)
heavy 1: not shown
heavy 2: not shown
light: B1 light
notes: as for B2
B11: GpH7-A5/GpH7-B3 variant S239_04F/GpL16-k0 (antibody, human IgG1, kappa)
heavy 1: not shown
heavy 2: not shown
light: B1 light
notes: as for B2
B12: GpH7-A5/GpH7-B3 variant V266_08L/GpL16-k0 (antibody, human IgG1, kappa)
heavy 1: not shown
heavy 2: not shown
light: B1 light
notes: Heterodimerized IgG1 (He Ab); mutation only in the GpH7-B3 chain; also called He Ab V266L
B13: GpH7-A5/GpH7-B3 variant S239_09D/GpL16-k0 (antibody, human IgG1, kappa)
heavy 1: not shown
heavy 2: not shown
light: B1 light
notes: Heterodimerized IgG1 (He Ab); mutation only in the GpH7-B3 chain; also called He Ab S239D

Columns and labels:
[1] = biological target: T1, FcγRIIa H (FcγRIIa type H, His at position 131), extracellular domain with C-terminal His tag (human, UniProt P12318 34-217); test: ratio of He/Con_2aH (FcγRIIa H) to He/Con_2b (FcγRIIb), SPR relative binding
T1 construct: extracellular domain; also called 2aH; FcgRIIa H; not shown: His tag at the C terminus
T1 sequence (looked up): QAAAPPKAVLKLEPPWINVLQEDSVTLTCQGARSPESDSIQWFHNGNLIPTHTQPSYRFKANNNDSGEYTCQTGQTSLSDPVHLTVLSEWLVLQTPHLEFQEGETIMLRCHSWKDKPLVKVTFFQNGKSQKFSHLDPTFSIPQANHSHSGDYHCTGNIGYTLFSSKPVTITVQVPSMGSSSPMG
Experimental: The heterodimerized antibodies He Abs in which one of the H chains was introduced with an alteration were assayed for their binding activities to each activating FcγR and inhibitory FcγR according to the method described in Example 4. […] The activating FcγRs in FIGS. 26, 27, 28, and 29 are FcγRIa, FcγRIIa (R), FcγRIIa (H), and FcγRIIIa, respectively.
(§1) Analysis of interaction between objective antibody and the FcγR was carried out using Biacore T100 (GE Healthcare). HBS-EP+ (GE Healthcare) was used as the running buffer, and the measurement temperature was set to 25° C. Chips produced by immobilizing the antigen peptide by the amine coupling method to a Series S Sencor Chip CM5 (GE Healthcare), or alternatively, chips produced by allowing preliminarily biotinylated antigen peptides to interact with and immobilize onto a Series S Sensor Chip SA (certified) (GE Healthcare) were used. Antibodies of interest were captured onto an antigen peptide-immobilized chip, and allowed to interact to each FcγR diluted with running buffer. To regenerate and repeatedly use the chip, the antibodies captured on the chip were washed off by reacting 10 mM glycine-HCl, pH 1.5.

[2] = biological target: T1, FcγRIIa H (FcγRIIa type H, His at …); test: SPR (Biacore), antibody captured on antigen-peptide chip, FcγR as analyte; GpH7-A5/GpH7-B3/GpL16-k0 = 100
[3] = biological target: T2, FcγRIIb, extracellular domain with C-terminal His tag (human, UniProt P31994 43-217); test: as above
T2 construct: extracellular domain; also called 2b; FcgRIIb; not shown: His tag at the C terminus
T2 sequence (looked up): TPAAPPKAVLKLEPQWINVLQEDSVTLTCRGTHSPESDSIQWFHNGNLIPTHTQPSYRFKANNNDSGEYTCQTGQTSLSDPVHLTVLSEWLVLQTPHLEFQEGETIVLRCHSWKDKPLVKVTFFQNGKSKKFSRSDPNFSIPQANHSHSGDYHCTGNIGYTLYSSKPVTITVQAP

[4] = biological target: T3, FcγRIIIa extracellular domain with C-terminal His tag (human, UniProt P08637 17-208); test: SPR; He/Con_3a divided by He/Con_2b (binding to FcγRIIb is the reference)
T3 construct: extracellular domain; also called FcgRIIIa; 3a; not shown: His tag at the C terminus
T3 sequence (P08637 17-208): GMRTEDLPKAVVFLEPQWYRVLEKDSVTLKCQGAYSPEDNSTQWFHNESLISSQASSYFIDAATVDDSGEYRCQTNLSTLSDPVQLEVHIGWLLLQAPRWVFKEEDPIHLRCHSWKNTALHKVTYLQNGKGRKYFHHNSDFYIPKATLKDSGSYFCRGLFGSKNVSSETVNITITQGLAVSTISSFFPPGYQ
Experimental: as §1
(§2) The FcγR-binding activity of each antibody was assessed primarily using as an indicator the FcγR-binding activity and dissociation constant for FcγR.

[5] = biological target: T3, FcγRIIIa extracellular domain with …; test: SPR (Biacore), antibody captured on antigen peptide chip, FcγR as analyte; relative binding amount
Experimental: as §1, §2

[6] = biological target: T4, FcγRIIb extracellular domain with C-terminal His tag (human, UniProt P31994 43-217); test: as above
T4 construct: extracellular domain; also called FcgRIIb; 2b; not shown: His tag at the C terminus
T4 sequence (looked up): T2 sequence (looked up)
Experimental: as §1, §2

Binder	He_2aH/2b (IIaH/IIb ratio) [1]	He/Con_2aH (relative binding activity) [2]	He/Con_2b (relative binding activity) [3]	He_3a/2b (IIIa/IIb) [4] [ratio]	He/Con_3a [5]	He/Con_2b [6]
B1	0.75	105 % of control	140 % of control			
B2				0.53	76.2 % of GpH7-A5/GpH7-B3/GpL16-k0 (=100)	144 % of GpH7-A5/GpH7-B3/GpL16-k0 (=100)
B3	-1.05	1.1 % of control	-1.1 % of control			
B4	0.62	112 % of control	181 % of control			
B5	0.44	25.3 % of control	57.6 % of control			
B6	0.66	10.1 % of control	15.2 % of control			
B7				0.55	40.4 % of GpH7-A5/GpH7-B3/GpL16-k0 (=100)	73.2 % of GpH7-A5/GpH7-B3/GpL16-k0 (=100)
B8				0.4	49.7 % of GpH7-A5/GpH7-B3/GpL16-k0 (=100)	123 % of GpH7-A5/GpH7-B3/GpL16-k0 (=100)
B9	0.78	35.2 % of control	45.1 % of control			
B10				0.28	4.5 % of GpH7-A5/GpH7-B3/GpL16-k0 (=100)	16.1 % of GpH7-A5/GpH7-B3/GpL16-k0 (=100)
B11				0.57	25.3 % of GpH7-A5/GpH7-B3/GpL16-k0 (=100)	44.1 % of GpH7-A5/GpH7-B3/GpL16-k0 (=100)
B12	0.44	104 % of control	236 % of control			
B13	0.56	114 % of control	206 % of control			
